Source: article doi:10.1101/2024.09.25.614871v2

What was measured:
purified protein = substrate: CC(C)(COP(=O)(O)OP(=O)(O)OC[C@H]1O[C@@H](n2cnc3c(N)ncnc32)[C@H](O)[C@@H]1OP(=O)(O)O)[C@@H](O)C(=O)NCCC(=O)NCCSC(=O)C[C@H](O)C(=O)O; experiment: purified protein; assay type: biochemical, Sus scrofa; details: pH 7.5, 37 °C, 100 mM Tris
[1] = substrate: C=C(CC(=O)O)C(=O)O; experiment: PK/LDH-coupled NADH consumption; assay type: biochemical, Homo sapiens; details: 0.1 mM CoA, 7 mM MgCl2, pH 7.5, 30 °C
[2] = substrate: O=C(O)C[C@H](O)C(=O)O; experiment: PK/LDH-coupled NADH consumption; assay type: biochemical, Homo sapiens; details: 0.1 mM CoA, 7 mM MgCl2, pH 7.5, 30 °C

B1: citrate synthase (CS) (Sus scrofa) (protein)
chain: ASSTNLKDILADLIPKEQARIKTFRQQHGNTVVGQITVDMMYGGMRGMKGLVYETSVLDPDEGIRFRGYSIPECQKMLPKAKGGEEPLPEGLFWLLVTGQIPTEEQVSWLSKEWAKRAALPSHVVTMLDNFPTNLHPMSQLSAAITALNSESNFARAYAEGIHRTKYWELIYEDCMDLIAKLPCVAAKIYRNLYREGSSIGAIDSKLDWSHNFTNMLGYTDAQFTELMRLYLTIHSDHEGGNVSAHTSHLVGSALSDPYLSFAAAMNGLAGPLHGLANQEVLVWLTQLQKEVGKDVSDEKLRDYIWNTLNSGRVVPGYGHAVLRKTDPRYTCQREFALKHLPHDPMFKLVAQLYKIVPNVLLEQGKAKNPWPNVDAHSGVLLQYYGMTEMNYYTVLFGVSRALGVLAQLIWSRALGFPLERPKSMSTDGLIKLVDSK
Q: Which Km (purified protein) does the source give for B1 here?
A: The Km was 106 µM.

B2: SUCL (GDP-forming), SUCLG1:SUCLG2 complex (Homo sapiens) (protein)
chain 1: not shown
chain 2: LNLQEYQSKKLMSDNGVRVQRFFVADTANEALEAAKRLNAKEIVLKAQILAGGRGKGVFNSGLKGGVHLTKDPNVVGQLAKQMIGYNLATKQTPKEGVKVNKVMVAEALDISRETYLAILMDRSCNGPVLVGSPQGGVDIEEVAASNPELIFKEQIDIFEGIKDSQAQRMAENLGFVGPLKSQAADQITKLYNLFLKIDATQVEVNPFGETPEGQVVCFDAKINFDDNAEFRQKDIFAMDDKSENEPIENEAAKYDLKYIGLDGNIACFVNGAGLAMATCDIIFLNGGKPANFLDLGGGVKEAQVYQAFKLLTADPKVEAILVNIFGGIVNCAIIANGITKACRELELKVPLVVRLEGTNVQEAQKILNNSGLPITSAIDLED
Q: With B2 as the protein, how does the Km ([1]; 0.6 mM GTP) read?
A: The Km was 1500 ± 200 µM.

Q: What about the kcat ([1]; 0.6 mM GTP) of the same protein?
A: The kcat was 5.3 ± 0.2 s⁻¹.

Q: What about the Km ([2]; 0.6 mM GTP) of the same protein?
A: The Km was 1900 ± 300 µM.

Q: What about the kcat ([2]; 0.6 mM GTP) of the same protein?
A: Its kcat is 0.18 ± 0.02 s⁻¹.

B3: SUCL (ADP-forming), SUCLG1:SUCLA2 complex (Homo sapiens) (protein)
chain 1: not shown
chain 2: LSLHEYMSMELLQEAGVSVPKGYVAKSPDEAYAIAKKLGSKDVVIKAQVLAGGRGKGTFESGLKGGVKIVFSPEEAKAVSSQMIGKKLFTKQTGEKGRICNQVLVCERKYPRREYYFAITMERSFQGPVLIGSSHGGVNIEDVAAESPEAIIKEPIDIEEGIKKEQALQLAQKMGFPPNIVESAAENMVKLYSLFLKYDATMIEINPMVEDSDGAVLCMDAKINFDSNSAYRQKKIFDLQDWTQEDERDKDAAKANLNYIGLDGNIGCLVNGAGLAMATMDIIKLHGGTPANFLDVGGGATVHQVTEAFKLITSDKKVLAILVNIFGGIMRCDVIAQGIVMAVKDLEIKIPVVVRLQGTRVDDAKALIADSGLKILACDDLDEAARMVVKLSEIVTLAKQAHVDVKFQLPI
Q: How did the Km ([1]; 0.6 mM ATP) turn out when B3 was run?
A: The Km was 19100 ± 2500 µM.

Q: What about the kcat ([1]; 0.6 mM ATP) of the same protein?
A: The kcat was 0.65 ± 0.08 s⁻¹.

Q: What about the Km ([2]; 0.6 mM ATP) of the same protein?
A: Its Km is 21900 ± 5800 µM.

Q: What about the kcat ([2]; 0.6 mM ATP) of the same protein?
A: Its kcat is 0.06 ± 0.01 s⁻¹.
